Test results: paper PMC10912698

Tests used:
[1] = molecular target: TssZ^R5A/R9A (non-c-di-GMP-binding mutant) as used in the co-IP (Pseudomonas aeruginosa PAO1); experiment: co-IP; PAO1 lysate co-expressing TssZ-HA (or TssZ^R5A/R9A) and V5-HinK; Anti-HA Affinity Gel, 2 h at 4 °C, 50 mM Tris-HCl pH 8.0, 150 mM NaCl, 0.05% TWEEN-20; blots with anti-V5 and anti-HA; also in strains overexpressing PA2133 (low c-di-GMP) or WspR (high c-di-GMP) and with 0-6.4 μM exogenous c-di-GMP
[2] = molecular target: TssZ-HA (TssZ fused with a HA tag at its carboxyl-terminal) (Pseudomonas aeruginosa PAO1); experiment: as above

## V5-HinK (HinK fused with V5 tag at its amino-terminal) (natural protein)
[1]
  fold change of co-immunoprecipitated V5-HinK against wild-type TssZ: 3.3 fold
[2]
  fold change of co-immunoprecipitated V5-HinK, low c-di-GMP lysate (PA2133 overexpressing strain) against the PAO1 control strain: 2.2 fold
